Values belong to the binder of their own block, whether it stands above or below them.
Biological target: purified Annexin A2 (UniProt P07355 1-339)
Experiment: SPR

Chain of purified Annexin A2 (P07355 whole entry): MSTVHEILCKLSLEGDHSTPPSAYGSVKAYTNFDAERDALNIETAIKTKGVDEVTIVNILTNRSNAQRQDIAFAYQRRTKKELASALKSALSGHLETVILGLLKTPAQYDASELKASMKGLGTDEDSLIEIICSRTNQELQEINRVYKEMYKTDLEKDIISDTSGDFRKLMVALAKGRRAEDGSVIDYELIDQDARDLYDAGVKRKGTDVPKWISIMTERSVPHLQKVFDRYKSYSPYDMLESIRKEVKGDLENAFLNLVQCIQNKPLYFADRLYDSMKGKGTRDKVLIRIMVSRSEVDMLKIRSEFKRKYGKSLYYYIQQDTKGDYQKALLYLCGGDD

koff: 1.14 s⁻¹
B1: purified C2 domain of CD147 (domain or fragment)
chain: AAGTVFTTVEDLGSKILLTCSLNDSATEVTGHRWLKGGVVLKEDALPGQKTEFKVDSDDQWGEYSCVFLPEPMGTANIQLHG

koff: 1.14 s⁻¹
B2: purified His-tagged Ig-like domains of CD147 (CD147ECP-his) (domain or fragment)
chain: AAGTVFTTVEDLGSKILLTCSLNDSATEVTGHRWLKGGVVLKEDALPGQKTEFKVDSDDQWGEYSCVFLPEPMGTANIQLHGPPRVKAVKSSEHINEGETAMLVCKSESVPPVTDWAWYKITDSEDKALMNGSESRFFVSSSQGRSELHIENLNMEADPGQYRCNGTSSKGSDQAIITLRVRSHLAAL

koff: 0.00307 s⁻¹
B3: purified I domain of CD147 (domain or fragment)
chain: PRVKAVKSSEHINEGETAMLVCKSESVPPVTDWAWYKITDSEDKALMNGSESRFFVSSSQGRSELHIENLNMEADPGQYRCNGTSSKGSDQAIIT

From paper PMC4868709 (2015)
